In patent US20230074793A1:

Target: CTLA4 (cytotoxic T-lymphocyte-associated protein 4) (human) (UniProt P16410)
Assay: cell-based or functional assay

CTLA4 (cytotoxic T-lymphocyte-associated protein 4) (human), sequence (P16410 36-223): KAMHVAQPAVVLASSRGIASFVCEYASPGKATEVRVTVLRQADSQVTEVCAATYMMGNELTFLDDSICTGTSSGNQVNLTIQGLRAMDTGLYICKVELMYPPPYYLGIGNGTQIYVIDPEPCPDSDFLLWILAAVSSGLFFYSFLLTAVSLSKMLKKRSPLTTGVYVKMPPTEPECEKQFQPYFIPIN

Substance: XmAb®20717 (bispecific antibody)
- IL-2 secretion (ELISA of culture supernatants) from SEB-stimulated human PBMC treated 24 hours, versus anti-RSV isotype-control bivalent antibody XENP15074: 4.1 fold
- IL-2 secretion (ELISA) from SEB-stimulated human PBMC, versus a mixture of the monovalent component antibodies XENP20111 (anti-PD1 scFv-Fc) and XENP20059 (anti-CTLA4 Fab-Fc): 1.6 fold
- IL-2 secretion (ELISA) from SEB-stimulated human PBMC, versus the bivalent anti-PD1 antibody XENP16432: 1.5 fold
